Data on one molecule can be found in paper doi:10.1101/094961 (bioRxiv, 2017).

For the assay, the target named is RNAP β' subunit with 6his tag (rpoC-6his), in purified δ-containing RNAP (B. subtilis, UniProt P37871 1-1199). Kind of assay: cross-linking.
Chain of RNAP β' subunit with 6his tag (rpoC-6his), in purified δ-containing RNAP (P37871 whole entry, stated change not applied): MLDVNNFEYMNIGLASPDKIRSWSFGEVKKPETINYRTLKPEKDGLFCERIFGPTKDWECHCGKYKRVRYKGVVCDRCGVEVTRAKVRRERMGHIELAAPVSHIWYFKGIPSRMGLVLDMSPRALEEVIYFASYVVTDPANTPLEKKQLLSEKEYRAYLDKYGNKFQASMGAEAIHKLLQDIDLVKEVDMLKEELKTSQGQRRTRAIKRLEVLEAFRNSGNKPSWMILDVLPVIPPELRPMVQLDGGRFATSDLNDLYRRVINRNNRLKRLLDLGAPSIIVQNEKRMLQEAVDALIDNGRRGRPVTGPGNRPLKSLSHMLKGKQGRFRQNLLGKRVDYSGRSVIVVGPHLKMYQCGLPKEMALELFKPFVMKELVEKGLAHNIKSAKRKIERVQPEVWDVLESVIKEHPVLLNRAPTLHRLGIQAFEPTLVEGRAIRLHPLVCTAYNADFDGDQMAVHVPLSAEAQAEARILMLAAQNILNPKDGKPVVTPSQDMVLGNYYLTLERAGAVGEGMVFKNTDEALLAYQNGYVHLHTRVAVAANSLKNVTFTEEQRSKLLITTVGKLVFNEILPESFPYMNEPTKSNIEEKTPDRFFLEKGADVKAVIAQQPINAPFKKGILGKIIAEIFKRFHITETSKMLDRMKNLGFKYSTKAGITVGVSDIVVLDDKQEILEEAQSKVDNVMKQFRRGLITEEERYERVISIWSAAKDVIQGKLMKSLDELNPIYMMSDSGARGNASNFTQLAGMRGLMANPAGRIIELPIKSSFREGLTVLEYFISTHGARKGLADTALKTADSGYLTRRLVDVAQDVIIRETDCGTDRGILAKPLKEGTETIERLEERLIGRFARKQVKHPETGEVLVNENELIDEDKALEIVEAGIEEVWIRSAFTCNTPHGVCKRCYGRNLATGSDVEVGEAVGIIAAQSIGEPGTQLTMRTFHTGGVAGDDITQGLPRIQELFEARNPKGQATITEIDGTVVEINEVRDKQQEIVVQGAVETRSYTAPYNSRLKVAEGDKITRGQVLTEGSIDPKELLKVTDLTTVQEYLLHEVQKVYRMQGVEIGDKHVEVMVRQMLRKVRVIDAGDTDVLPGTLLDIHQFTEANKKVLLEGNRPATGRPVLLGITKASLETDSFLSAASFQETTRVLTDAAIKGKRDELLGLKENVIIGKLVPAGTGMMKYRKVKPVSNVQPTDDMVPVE

B1: δ subunit (RpoE) of RNA polymerase (natural protein, UniProt P12464 1-173, looked up)
chain: MGIKQYSQEELKEMALVEIAHELFEEHKKPVPFQELLNEIASLLGVKKEELGDRIAQFYTDLNIDGRFLALSDQTWGLRSWYPYDQLDEETQPTVKAKKKKAKKAVEEDLDLDEFEEIDEDDLDLDEVEEELDLEADDFDEEDLDEDDDDLEIEEDIIDEDDEDYDDEEEEIK
As for B1, the binding result is given as “binds”.
